Consider one substance from patent US20220195043A1.

For assay [1], the target named is human CD3ε-his (Cat #:10977-H08s, SinoBiological, China) (human) (UniProt P07766). Briefly: ELISA: plate coated with human CD3ε-his (hCD3ε-his), antibody titrated, HRP goat anti-human IgG, OD450. Background: In an ELISA, binding on a coated surface is turned into a signal by an enzyme label.
Assay [2] deals with monkey CD3 complex on cell surfaces (monkey PBMCs) (monkey). The assay can be described thus: FACS on monkey PBMCs (Cyno-PBMC), given by the filing as binding to monkey CD3; PE goat anti-human IgG, MFI.
The target in assay [3] is monkey CD20 (HEK293A/monkey CD20 cells) (monkey). The assay can be described thus: FACS on HEK293A/monkey CD20 (CynoCD20) cells, PE anti-human IgG secondary antibody, MFI.
monkey CD20 (HEK293A/monkey CD20 cells) (monkey), sequence (P11836 other isoform, or with tags, fused parts or gaps): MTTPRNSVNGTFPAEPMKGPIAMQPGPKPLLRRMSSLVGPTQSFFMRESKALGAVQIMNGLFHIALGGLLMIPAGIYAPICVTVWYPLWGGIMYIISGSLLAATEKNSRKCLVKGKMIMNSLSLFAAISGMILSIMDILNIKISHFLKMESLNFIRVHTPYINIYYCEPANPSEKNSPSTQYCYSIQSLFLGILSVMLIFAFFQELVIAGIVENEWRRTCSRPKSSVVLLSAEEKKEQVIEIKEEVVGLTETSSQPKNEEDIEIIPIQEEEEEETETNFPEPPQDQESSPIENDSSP
The target of assay [4] is human CD3ε-his (Cat #:10977-H08s, SinoBiological, China) (human) (UniProt P07766). The assay can be described thus: SPR (BIAcore 8K); human CD3ε-his coupled to CM5 chip, antibody injected. (Surface plasmon resonance follows binding to a sensor surface in real time, without labels.)

human CD3ε-his (Cat #:10977-H08s, SinoBiological, China) (human), sequence (P07766 23-126 limits assumed): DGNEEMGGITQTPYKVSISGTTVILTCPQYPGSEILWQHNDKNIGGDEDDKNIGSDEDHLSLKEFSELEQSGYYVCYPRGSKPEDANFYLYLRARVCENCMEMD

A word on the EC50 (read off the curve): it is the concentration needed to bring the measured effect to its halfway point. What is called Kd is a measure of binding affinity in units of concentration. In the case of “CD20-TCB (reference bispecific antibody against CD3 and CD20)”, the EC50 (read off the curve) in assay [1] stood at 0.1 µg/mL; in assay [2], 0.6 µg/mL; in assay [3], 0.06 µg/mL. The same substance registered a Kd in assay [4] of 5.6 nM.
